Measured values: US11931401B2, “Runx3 modified protein for prevention or treatment of cancer” (GeneCraft Inc., priority 2020, dated 2024)
Changes are numbered by the printed parent chain. In names and notes the source's numbering stands. Entries after “also recorded” stand apart in the source; their conditions may differ. Each block holds one molecule with its values, some of them ahead of it.

Experiments:
BRD2 [1] = biological target: T1, BRD2 (Homo sapiens, UniProt P25440); assay: Time-dependent BRD2-RUNX3 complex formation after serum stimulation by immunoprecipitation (IP) and immunoblotting (IB); format: binding; conditions: overexpressed Myc-tagged protein; FIG. 1
T1 sequence (P25440 whole entry): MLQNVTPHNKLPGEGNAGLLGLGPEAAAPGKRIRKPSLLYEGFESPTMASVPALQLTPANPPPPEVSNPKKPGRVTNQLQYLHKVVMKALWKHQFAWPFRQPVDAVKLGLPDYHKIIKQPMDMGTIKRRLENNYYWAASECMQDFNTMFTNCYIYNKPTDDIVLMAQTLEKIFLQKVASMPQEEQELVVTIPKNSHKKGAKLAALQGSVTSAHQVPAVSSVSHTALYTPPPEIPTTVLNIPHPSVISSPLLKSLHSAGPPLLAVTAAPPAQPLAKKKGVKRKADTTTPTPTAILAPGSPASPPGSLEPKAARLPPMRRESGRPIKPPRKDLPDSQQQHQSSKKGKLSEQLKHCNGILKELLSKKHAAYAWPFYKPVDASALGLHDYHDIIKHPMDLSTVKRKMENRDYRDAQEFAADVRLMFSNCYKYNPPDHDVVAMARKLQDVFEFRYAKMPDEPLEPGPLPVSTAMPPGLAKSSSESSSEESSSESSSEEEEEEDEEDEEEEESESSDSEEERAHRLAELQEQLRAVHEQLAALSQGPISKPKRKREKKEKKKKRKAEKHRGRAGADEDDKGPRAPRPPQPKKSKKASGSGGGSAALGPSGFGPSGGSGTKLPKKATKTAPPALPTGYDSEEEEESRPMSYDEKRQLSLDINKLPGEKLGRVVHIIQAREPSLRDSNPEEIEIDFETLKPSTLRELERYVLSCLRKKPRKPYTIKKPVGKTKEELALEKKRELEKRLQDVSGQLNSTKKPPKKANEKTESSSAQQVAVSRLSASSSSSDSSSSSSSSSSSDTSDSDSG
Description: The antibody targeting RUNX3 (5G4) (Cat #ab40278) was obtained from Abcam (Cambridge, UK), and the antibody was diluted 1:3000. BRD2 (M01; 1:1000; Cat #H00006046-M01, Abnova, Taipei City, Taiwan) was used for immunoblotting and immunoprecipitation.
RUNX3 phosphorylation in serine, the 356th amino acid of Runx3 protein, was measured by immunoprecipitation (IP) and immunoblotting (IB) in the same manner as described in Experimental Method 3 above.

lung cancer cell lines = assay: Apoptosis by flow cytometry (FITC-Annexin V / propidium iodide), lung cancer cell lines; format: cell-based
Description: (§1) Each cell line was cultured in a 10 cm culture dish (5×10^5 cells) for 2 days and then approximately 2×10^6 cells of each cell line was infected with 1×10^8 VP of adenovirus or adenovirus Runx3 or adenovirus Runx3 S356A. After 48 hours, the cell death rate was measured by flow cytometry.

[2] = test system: pancreatic cancer cell lines; assay: Apoptosis by flow cytometry (FITC-Annexin V / propidium iodide), pancreatic cancer cell lines; format: cell-based; conditions: listed as modified protein in which the 356th serine of Runx3 is substituted with alanine
Description: as §1

[3] = test system: stomach cancer cell lines; assay: Apoptosis by flow cytometry (FITC-Annexin V / propidium iodide), stomach cancer cell lines; format: cell-based; conditions: stomach (gastric) cancer cell lines; listed as modified protein in which the 356th serine of Runx3 is substituted with alanine
Description: as §1

BRD2 [4] = biological target: T1, BRD2; assay: Time for which Runx3 protein forms a complex with Brd2 protein (IP/IB); format: binding; conditions: for time for which physical binding / complex with BRD2 was maintained: IP/IB
Description: The modified protein in which the 356th amino acid of Runx3 is substituted with alanine blocks the physical binding between Runx3 and CDK4, thereby inhibiting the phosphorylation of the 356th serine of Runx3 by CDK4. By inhibiting the conversion of the Rpa-Rx3-AC complex including Runx3 to the Rpa-Rx3-TR complex, the function of maintaining the anticancer activity of Runx3 is improved. Thus, the following experiment was performed to compare the time for the modified protein in which the 356th amino acid of Runx3 is substituted with alanine to form a complex by binding to Brd2 protein with the wild-type Runx3.
Particularly, the antibody targeting RUNX3 (5G4) (Cat #ab40278) was obtained from Abcam (Cambridge, UK), and the antibody was diluted 1:3000. BRD2 (M01; 1:1000; Cat #H00006046-M01, Abnova, Taipei City, Taiwan) was used for immunoblotting and immunoprecipitation.

- time for which binding with BRD2 was maintained after the serum stimulation (BRD2 [1]): ≤ 8 h
- time for which physical binding / complex with BRD2 was maintained (BRD2 [4]): up to 40 hours
B1: S356A: Runx3 modified protein: 356th serine substituted with alanine (TCA→GCA) (protein)
chain: MRIPVDPSTSRRFTPPSPAFPCGGGGGKMGENSGALSAQAAVGPGGRARPEVRSMVDVLADHAGELVRTDSPNFLCSVLPSHWRCNKTLPVAFKVVALGDVPDGTVVTVMAGNDENYSAELRNASAVMKNQVARFNDLRFVGRSGRGKSFTLTITVFTNPTQVATYHRAIKVTVDGPREPRRHRQKLEDQTKPFPDRFGDLERLRMRVTPSTPSPRGSLSTTSHFSSQPQTPIQGTSELNPFSDPRQFDRSFPTLPTLTESRFPDPRMHYPGAMSAAFPYSATPSGTSISSLSVAGMPATSRFHHTYLPPPYPGAPQNQSGPFQANPSPYHLYYGTSSGSYQFSMVAGSSSGGDRAPTRMLASCTSSAASVAAGNLMNPSLGGQSDGVEADGSHSNSPTALSTPGRMDEAVWRPY
modifications: Myc tag; Runx3 isoform2 amino acid
- cancer cell killing compared to the wild-type Runx3 protein (in words) (lung cancer cell lines): more effective in killing cancer cells
- increase of apoptosis rate compared to the wild-type Runx3 protein (lung cancer cell lines; flow cytometry): ≥ 2 times
- cancer cell death efficacy compared to the wild-type Runx3 protein (in words) [2]: more effective in killing cancer cells; also recorded: further increased the cancer cell death efficacy
- cancer cell death efficacy compared to the wild-type Runx3 protein (in words) [3]: more effective in killing cancer cells; also recorded: further increased the cancer cell death efficacy

- time for which physical binding / complex with BRD2 was maintained (BRD2 [4]): up to 8 hours
- time after which the binding of Runx3 and BRD2 was separated (BRD2 [4]; after the binding): 3 h
B2: S356 wild type: Wild-type Runx3 (Runt-related transcription factor 3) protein, 356th serine not substituted; SEQ ID NO: 2 (protein)
chain: B1 chain with A356S
modifications: Runx3 isoform2 amino acid
